Test results from patent US10494415B2, “Insulin-like growth factor 2 (IGF2) binding agents” (Cancer Research Technology Limited, priority 2015, dated 2019).
“Also recorded” adds a separate entry of the source. Marks after values point to notes of the source that are not given here.

Key:
[1] = tested on: IGF2^1-67-induced hypoglycaemia; test: IGF2-induced hypoglycaemia mouse model; format: in vivo
Excerpt: All animal experiments were approved by the animal use ethical committee of Oxford University and fully complied with UK Home Office guidelines (PPL 30/2695). Wild-type C57BL/6J and 129S2 mice were used throughout. Mice were anaesthetised using a rising concentration of isoflurane in oxygenated air and maintained using 2% isoflurane with 2 L min^−1 oxygen. Blood glucose measurements were taken using an Advantage diabetic glucose meter (Roche Diagnostics, Burgess Hill, UK). In order to test the direct inhibition of IGF2-induced hypoglycaemia by Fc-domain 11^AB5, blood glucose levels were allowed to normalise for 30 min prior to taking a baseline blood glucose reading, then either 1 mg kg^−1 IGF2 only (R&D systems), […], Fc-domain 11^RHH, or Fc-domain 11^I1572A ([…]) was injected. Blood glucose measurements were taken every 10 min for the following hour. For the Fc-domain 11^AB5 mouse preloading experiment, 11.7 mg kg^−1 Fc-domain 11^AB5 or PBS, as negative control, was injected immediately after induction of anaesthesia, 30 mins later a baseline blood glucose reading was taken and 1 mg kg^−1 IGF2 ([…]) was injected, readings were then taken every 10 min for the following hour. For the mouse IGF2 preloading experiment, 1 mg kg^−1 IGF2 was injected immediately after induction of anaesthesia, 30 min later a baseline blood glucose reading was taken and either 11.7 mg kg^−1 Fc-domain 11^AB5 ([…]) or PBS was injected, readings were then taken every 10 min for the following hour.

Huh7 cells = test: Apoptosis in hepatocellular carcinoma cells; format: cell-based, human
IGF2^1-67 = target: T1, IGF2^1-67 (Homo sapiens, UniProt P01344); test: SPR of IGF forms on Fc-domain 11 proteins immobilised by antibody capture; format: binding; settings: HBS-EP pH 7.4
T1 construct: Recombinant mature (IGF2^1-67 [7.5 kDa]
Description: (§1) SPR analysis of the interaction of recombinant IGF1 and IGF2 forms with Fc-domain 11 proteins immobilised by antibody capture (CM5 chip containing monoclonal mouse anti-human IgG antibody immobilised by amine coupling). Measurements were carried out at 25° C. in HBS-EP buffer (pH 7.4).
(§2) Final kinetic analysis of mutants by SPR was conducted using a Biacore T200 biosensor at 25° C. in either HBS-EP (10 mM HEPES pH 7.4, 150 mM NaCl, 3 mM EDTA, and 0.005% (v/v) surfactant P20) or MES-EP (20 mM MES pH 6.5, 150 mM NaCl, 3 mM EDTA, and 0.005% (v/v) surfactant P20) at a flow-rate of 40 μL min^−1. […] For the analysis of the Fc-domain 11^AB5 interaction, approximately 50 RU of a biotinylated IGF2:biotinylated ubiquitin mixture (1:8 proportion) was immobilized on the CM5-streptavidin chip. This interaction was also analysed by immobilizing the Fc-domain 11^AB5 and Fc-domain 11^AB5-RHH (or Fc-domain 11^I1572A as control) by Human Antibody Capture (monoclonal mouse anti-human IgG antibody immobilised on a CM5 chip by amine coupling, GE Healthcare) with and without human IgG1 Fc fragment (Bethyl Laboratories, UK) in the control flow cell. Increasing concentrations of IGF2^1-67, proIGF2^1-104, proIGF2^1-156 and IGF1 ranging from 0.125 to 32 nM were injected. T200 BiaEvaluation software (GE Healthcare) was used to fit the resulting curves according to a 1:1 binding model. Steady state affinities were determined using the kinetic data, taking the response average at 5 seconds before injection end and for 5 seconds average. Thermodynamic data was performed across the temperature range of 10° C. to 30° C., van't Hoff and Erying plots generated and ΔH, −TΔS and ΔG values determined as previously described.

IGF2^1-104 = target: T2, IGF2^1-104 (Homo sapiens, UniProt P01344); test: as above; format: binding; settings: HBS-EP pH 7.4
T2 construct: pro-IGF2 (pro-IGF2^1-104 [11 kDa]
Description: as §1, §2

IGF2^1-156 = target: T3, IGF2^1-156 (Homo sapiens, UniProt P01344); test: as above; format: binding; settings: for Kinetics koff: HBS-EP pH 7.4; for Kinetics kon: may be inaccurate (mixture of three isoforms)
T3 construct: pro-IGF2^1-156 [17 kDa]
Description: as §1, §2

Hep3B cells = test: Cell proliferation assay (EdU incorporation); format: cell-based, human; settings: relative to OSI-06
Description: EdU incorporation was used to measure cell proliferation (Invitrogen, C10338). Briefly, cells were plated at a density of 2×10^5 cells/well in 6-well plates and cultured in serum free media. After 24 hr of serum starvation, PBS (black) and 1.5 μM Fc-domain 11^I1572 (grey) as negative controls, 0.5 and 1.5 μM Fc-domain 11^AB5 (orange), 1 μM OSI-906 (purple) and 0.1 and 0.5 μM doxycycline (green) as positive controls were added to the different wells and cells were further cultured. After 48 hr, 10 μM EdU was added for 3 hr and cells were then washed and trypsinised, followed by fixation in 4% PFA and permeabilisation in TBS/5% Triton. The Alexa 555 dye was then attached to the EdU molecules by click chemistry following the manufacturer's instructions and the % of EdU incorporation under different conditions was then analysed by flow cytometry.

Hep 3B2.1-7 cells = test: In vitro cell viability (CellTiter 96 AQueous); format: cell-based, human; settings: cell line not specified in the sentence (FIG. 10: Hep3B, Huh7)
Description: The human hepatocellular carcinoma cell lines Hep 3B2.1-7 and Huh-7D12 were obtained from the ATCC (HB-8065) and the ECACC (Catalogue number 1042712), respectively. Hep 3B2.1-7 was grown in EMEM (Lonza) supplemented with 10% (v/v) fetal bovine serum, 100 U mL-1 penicillin, 100 μg mL-1 streptomycin, and 2 mM Lglutamine Huh-7D12 was grown in DMEM (Sigma) supplemented with 10% fetal bovine serum, 100 U mL-1 penicillin, 100 μg mL-1 streptomycin, and 2 mM L-glutamine. Cells were plated in 96-well plates at a density of 1-2×10^4 cells/well in serum free medium. After 24 hr, Fc-domain 11^AB5 (orange), Fc-domain 11^I1572A as negative control (grey) or OSI-906 (purple) were added to each well to different final concentrations and the cells were incubated for further 48-72 hr. Cell viability was assayed at 48 and 72 hr after Fc-domain 11^AB5 treatment using the CellTiter 96® AQueous Non-Radioactive Cell Proliferation Assay (Promega). The half maximal inhibitory concentration (IC50) was calculated using graph prism.

[2] = pre-loading, co-injection or post-loading

T3 sequence (P01344 25-180): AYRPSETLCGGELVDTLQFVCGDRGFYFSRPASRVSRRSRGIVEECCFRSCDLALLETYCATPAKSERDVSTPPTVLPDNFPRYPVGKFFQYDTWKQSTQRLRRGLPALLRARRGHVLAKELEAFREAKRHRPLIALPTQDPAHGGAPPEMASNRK
T2 sequence (P01344 25-128): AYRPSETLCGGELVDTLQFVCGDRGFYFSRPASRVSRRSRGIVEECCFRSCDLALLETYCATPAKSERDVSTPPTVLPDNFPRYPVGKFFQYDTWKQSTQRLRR
T1 sequence (P01344 25-91): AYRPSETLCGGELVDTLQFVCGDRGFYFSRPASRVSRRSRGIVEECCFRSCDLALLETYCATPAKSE

Kinetics koff (IGF2^1-67) | Kinetics kon (IGF2^1-67) | Kinetics koff (IGF2^1-104) | Kinetics kon (IGF2^1-104) | Kinetics koff (IGF2^1-156) | Kinetics kon (IGF2^1-156) | Molecule | IGF2-induced hypoglycaemia (blood glucose) ([1]; administered 30 min after 1 mg kg^−1 IGF2^1-67) | IGF2-induced hypoglycaemia (blood glucose) [1, 2] | IGF2-induced hypoglycaemia (blood glucose) ([1]; preloading 30 min before 1 mg kg^−1 IGF2^1-67) | IGF2-induced hypoglycaemia (blood glucose) ([1]; premixed / co-injected with 1 mg kg^−1 IGF2^1-67, molar ratio 1:1) | Apoptosis (Huh7 cells) | Proliferation (Hep3B cells) | Inhibitory effect on cell lines (Hep 3B2.1-7 cells)
0.025 s⁻¹ | 6.47e+06 M⁻¹ s⁻¹ | 0.0069 s⁻¹ | 1.287e+07 M⁻¹ s⁻¹ | 0.0009 s⁻¹ | 4.19* ×10^6 M^−1s^−1 | Fc-domain 11^AB5: human IgG1 Fc-fusion of domain 11^AB5 (protein, left off: a dimerising Fc or GST, human IgG1 Fc-fusion of domain 11^AB5) NEHDDCQVTNPSTGHLFDLSSLSGRAGFTAAYAKGWGVYMSICGENENCPPGVGACFGQTRISVGKANKRLRYVDQVLQLVYKDGSPCPSKSGLSYKSVISFVCRPEAGPTNRPMLISLDKQTCTLFFSWHTPLACEQAT | can reverse IGF2-induced hypoglycaemia | significant abrogation of the hypoglycaemic effects | protects against IGF2-induced hypoglycaemia | abrogation; also recorded: prevents IGF2-induced hypoglycaemia | promoted | inhibited | 
 |  | 0.002 s⁻¹ | 520000 M⁻¹ s⁻¹ | 0.0008 s⁻¹ | 0.29* ×10^6 M^−1s^−1 | Fc-domain 11^I1572A: low binder Fc-domain 11 fusion with I1572A, non-IGF2 binding control (protein, left off: a dimerising Fc or GST) NEHDDCQVTNPSTGHLFDLSSLSGRAGFTAAYSEKGLVYMSICGENENCPPGVGACFGQTRASVGKANKRLRYVDQVLQLVYKDGSPCPSKSGLSYKSVISFVCRPEAGPTNRPMLISLDKQTCTLFFSWHTPLACEQAT |  | not detected |  |  |  |  | no effect
